{
  "source": "the supplement of paper PMC9170038",
  "system": "MS2 coat protein",
  "experiment": "apparent KD of MS2 coat protein; designed switch direction (-1 OFF switch, 1 ON switch): 1; higher = weaker reporter binding",
  "summary_of_the_method": "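Designed RNA switches with common flanks were transcribed on Illumina chips by stalled E. coli RNA polymerase and titrated with SNAP-549-labelled MS2 coat protein, from 0.7 or 1.5 nM doubling to 3 µM, in Tris-HCl pH 7.5 buffer with KCl, MgCl2, BSA, DTT, tRNA and Tween-20. Steps lasted 0.8–1.5 h (lowest) to 10–20 min (highest). Titrations ran without input, with 200 uM small-molecule ligand, or with an oligonucleotide input. Normalised cluster fluorescence was curve-fitted, and apparent KD is the per-design median over clusters.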",
  "key": {"[1]": {"details": "Eterna round: R95, input ligand: FMN 200 uM"}, "[2]": {"details": "Eterna round: R95, input ligand: microRNA oligo, concentration not stated"}, "[3]": {"details": "Eterna round: R95, input ligand: none"}, "[4]": {"details": "input ligand: microRNA oligo, concentration not stated"}},
  "data": [
    {"sequence": "GUUAAACAUGAGGAUCACCCAUGUAAUAUAAUGGGAGGAUAUCUGAAUUAAUUAAAUUAAGGAGAAGGCCUAAUUG [Mat - Same State 1 - Mod of Eli - D52] (puzzle: Same State 1)", "values": [
      {"measurement": "apparent KD of MS2 coat protein", "setting": "[1]", "value": 42, "unit": "nM"},
      {"measurement": "apparent KD of MS2 coat protein", "setting": "[2]", "value": 181, "unit": "nM"},
      {"measurement": "apparent KD of MS2 coat protein", "setting": "[3]", "value": 255, "unit": "nM"}
    ]},
    {"sequence": "AUUAAUAAUCGAGGAUAUCACGUCGAAUAGACGUGAGAAGGCGAUCAUAACAUGAGGAUCACCCAUGUAUUACAUGAAAUUAAU [SSNG1/4-B4] (Eterna round: R96, puzzle: Same State NG 1)", "values": [
      {"measurement": "apparent KD of MS2 coat protein", "setting": "input ligand: FMN 200 uM", "value": 22.4, "unit": "nM"},
      {"measurement": "apparent KD of MS2 coat protein", "setting": "[4]", "value": 20.5, "unit": "nM"},
      {"measurement": "apparent KD of MS2 coat protein", "setting": "input ligand: none", "value": 38.1, "unit": "nM"}
    ]},
    {"sequence": "GCCGGACCGGAAGGAUAUGUUCCCGGUGCAGCGGGAGACAUGAGGAUCACCCAUGUACUAUAACGACAGAAGGUCCAACCAGCG [Eternabot solution 21] (Eterna round: R96, puzzle: Same State NG 2)", "values": [
      {"measurement": "apparent KD of MS2 coat protein", "setting": "input ligand: FMN 200 uM", "value": 18.7, "unit": "nM"},
      {"measurement": "apparent KD of MS2 coat protein", "setting": "[4]", "value": 16.4, "unit": "nM"},
      {"measurement": "apparent KD of MS2 coat protein", "setting": "input ligand: none", "value": 22.5, "unit": "nM"}
    ]},
    {"sequence": "GGUGCGAAUAAAGCCUACAUGAGGAUCACCCAUGUAUGUAGGCAGGAUAUCGUUUGCUUUGCAAACGAGAAGGGCUGUCGCACC [JL SSNG3 1.16] (Eterna round: R96, puzzle: Same State NG 3)", "values": [
      {"measurement": "apparent KD of MS2 coat protein", "setting": "input ligand: FMN 200 uM", "value": 21.9, "unit": "nM"},
      {"measurement": "apparent KD of MS2 coat protein", "setting": "[4]", "value": 49, "unit": "nM"},
      {"measurement": "apparent KD of MS2 coat protein", "setting": "input ligand: none", "value": 70.7, "unit": "nM"}
    ]},
    {"sequence": "CAAGGGUACGGAUUAGUACAUGAGGAUCACCCAUGUAUCCGACAGGAUAUCAUGUAAGAAGCCAGUGAGAAGGGUCUAGUCCAA [Eternabot solution 43] (Eterna round: R96, puzzle: Same State NG 3)", "values": [
      {"measurement": "apparent KD of MS2 coat protein", "setting": "input ligand: FMN 200 uM", "value": 367, "unit": "nM"},
      {"measurement": "apparent KD of MS2 coat protein", "setting": "[4]", "value": 205, "unit": "nM"},
      {"measurement": "apparent KD of MS2 coat protein", "setting": "input ligand: none", "value": 460, "unit": "nM"}
    ]},
    {"sequence": "AAAAUGGUAUGUUACAUGAGGAUCACCCAUGUACCGUAAUCUGAGGAUAUGGUGAUGUAGAAGAAUCAGAAGGCAGACAUUUAA [AK SSNG3-V2-24.2] (Eterna round: R96, puzzle: Same State NG 3)", "values": [
      {"measurement": "apparent KD of MS2 coat protein", "setting": "input ligand: FMN 200 uM", "value": 19.2, "unit": "nM"},
      {"measurement": "apparent KD of MS2 coat protein", "setting": "[4]", "value": 26.7, "unit": "nM"},
      {"measurement": "apparent KD of MS2 coat protein", "setting": "input ligand: none", "value": 36.1, "unit": "nM"}
    ]},
    {"sequence": "UGGCUCAGACGAGGAUAUAUGUGAUCACAUGAGGAUCACCCAUGUCUCGAGCUUCGGCUCGAGACAUAGAAGGUGUCUGAGCCU [SSNG2/3-C3] (Eterna round: R96, puzzle: Same State NG 2)", "values": [
      {"measurement": "apparent KD of MS2 coat protein", "setting": "input ligand: FMN 200 uM", "value": 53.9, "unit": "nM"},
      {"measurement": "apparent KD of MS2 coat protein", "setting": "[4]", "value": 12.2, "unit": "nM"},
      {"measurement": "apparent KD of MS2 coat protein", "setting": "input ligand: none", "value": 6.64, "unit": "nM"}
    ]},
    {"sequence": "UAGAAACAUGAGGAUCACCCAUGUGGGUUAAACACAGGAUAUCACGCCAAAAGAAAAGCGUGAGAAGGGUGACCGA [Xeusisus] (Eterna round: R96, puzzle: Same State 1)", "values": [
      {"measurement": "apparent KD of MS2 coat protein", "setting": "input ligand: FMN 200 uM", "value": 254, "unit": "nM"},
      {"measurement": "apparent KD of MS2 coat protein", "setting": "[4]", "value": 696, "unit": "nM"},
      {"measurement": "apparent KD of MS2 coat protein", "setting": "input ligand: none", "value": 107, "unit": "nM"}
    ]},
    {"sequence": "AGUCCAGCCUGAGCUGGACAAAAGCAUGUACAUGAGGAUCACCCAUGUUCAUGUACAAGCUUUUUGCUCGUCUUGGA [salish99_208a_r3_103x] (puzzle: Sensor for hsa-mir-208a)", "values": [
      {"measurement": "apparent KD of MS2 coat protein", "setting": "[1]", "value": 350, "unit": "nM"},
      {"measurement": "apparent KD of MS2 coat protein", "setting": "[2]", "value": 16.2, "unit": "nM"},
      {"measurement": "apparent KD of MS2 coat protein", "setting": "[3]", "value": 505, "unit": "nM"}
    ]},
    {"sequence": "GGACGUCAUCUCAAUGAUUAAACAUGAGGAUCACCCAUGUCACAGGAUAUGGAUCCUAAUUGGAUCCAGAAGGGUGUGACGUCC [Fiskers NG3ss - 44] (Eterna round: R96, puzzle: Same State NG 3)", "values": [
      {"measurement": "apparent KD of MS2 coat protein", "setting": "input ligand: FMN 200 uM", "value": 121, "unit": "nM"},
      {"measurement": "apparent KD of MS2 coat protein", "setting": "[4]", "value": 98.2, "unit": "nM"},
      {"measurement": "apparent KD of MS2 coat protein", "setting": "input ligand: none", "value": 148, "unit": "nM"}
    ]},
    {"sequence": "GGAAUAUGAUGUUACAUGAGGAUCACCCAUGUAGUAAUAACUAAGGAUAUUUGAAAGGGAGGAGAAGAGAAGGUAGGAUCAUAA [AK SSNG3-V2-11] (Eterna round: R96, puzzle: Same State NG 3)", "values": [
      {"measurement": "apparent KD of MS2 coat protein", "setting": "input ligand: FMN 200 uM", "value": 61, "unit": "nM"},
      {"measurement": "apparent KD of MS2 coat protein", "setting": "[4]", "value": 41.3, "unit": "nM"},
      {"measurement": "apparent KD of MS2 coat protein", "setting": "input ligand: none", "value": 63.8, "unit": "nM"}
    ]},
    {"sequence": "CCGAUAAUUGGAGGAUAUGGAGCCUUAUUGGCUCCAGAAGGCUAUAAACAUGAGGAUCACCCAUGUCGGCGGUCUAAUGACCGA [Eli NG1ss - 50] (Eterna round: R96, puzzle: Same State NG 1)", "values": [
      {"measurement": "apparent KD of MS2 coat protein", "setting": "input ligand: FMN 200 uM", "value": 28, "unit": "nM"},
      {"measurement": "apparent KD of MS2 coat protein", "setting": "[4]", "value": 36.6, "unit": "nM"},
      {"measurement": "apparent KD of MS2 coat protein", "setting": "input ligand: none", "value": 60.4, "unit": "nM"}
    ]}
  ]
}
